Consider 9 molecules from PMC11026163, “Structural basis for excitatory neuropeptide signaling” (Nature Structural & Molecular Biology, 2024).

Assay [1] relates to FaNaC1 H297S. As to the kind of experiment: TEVC, FMRFa- and ASSFVRIa-gated currents at H297S channels. It is filed as cell-based, Malacoceros fuliginosus. The note with it: normalized to maximum FMRFa-gated current. The source says:
(§1) Fig. 6 FaNaC1 gating mechanism. a, Overlay of ligand-free FaNaC1 (blue) and FaNaC1/FMRFa/diminazene (orange) structures. Adjacent subunit in darker shades. b, Magnified views of boxed regions, left to right: ligand binding site; palm domain; β-turn–TM2a/TM1 interactions. Selected side chains shown as sticks and labeled. c, Illustration of one subunit (left subunit in a) moving during gating: peripheral rolling, internal stasis and β-turn moving outward to allow channel expansion. α6 helix from adjacent subunit in gray. d, Top left and bottom, example recordings from oocytes expressing mutant H297S FaNaC1 channels (scale bars, x, 30 s; y, 1 µA). Top right, mean (± s.e.m., n = 5 oocytes) responses of H297S channels to FMRFa and ASSFVRIa normalized to maximum FMRFa-gated current (I/Imax-FMRFa), compared to WT channels. […]
(§2) Oocytes were clamped at −60 mV unless otherwise indicated, and currents were measured by two-electrode voltage clamp, as previously described, using a Warner OC-725C amplifier and HEKA LIH8 + 8 interface with Patchmaster 2x90.4 software (HEKA), sampling at 500 Hz or 1 kHz and filtering at 100 Hz. Current amplitudes were measured in Clampfit v.11 (Molecular Devices). […] Data were analyzed in Prism v.9 (GraphPad) and fit with Prism v.9 variable-slope four-parameter nonlinear regression, yielding half-maximal effective activating/inhibiting concentrations (EC50/IC50). […]

In assay [2] the target is T1, FaNaC1 (WT) (Malacoceros fuliginosus, UniProt A0AAN0NP85).
T1 sequence (A0AAN0NP85 1-600): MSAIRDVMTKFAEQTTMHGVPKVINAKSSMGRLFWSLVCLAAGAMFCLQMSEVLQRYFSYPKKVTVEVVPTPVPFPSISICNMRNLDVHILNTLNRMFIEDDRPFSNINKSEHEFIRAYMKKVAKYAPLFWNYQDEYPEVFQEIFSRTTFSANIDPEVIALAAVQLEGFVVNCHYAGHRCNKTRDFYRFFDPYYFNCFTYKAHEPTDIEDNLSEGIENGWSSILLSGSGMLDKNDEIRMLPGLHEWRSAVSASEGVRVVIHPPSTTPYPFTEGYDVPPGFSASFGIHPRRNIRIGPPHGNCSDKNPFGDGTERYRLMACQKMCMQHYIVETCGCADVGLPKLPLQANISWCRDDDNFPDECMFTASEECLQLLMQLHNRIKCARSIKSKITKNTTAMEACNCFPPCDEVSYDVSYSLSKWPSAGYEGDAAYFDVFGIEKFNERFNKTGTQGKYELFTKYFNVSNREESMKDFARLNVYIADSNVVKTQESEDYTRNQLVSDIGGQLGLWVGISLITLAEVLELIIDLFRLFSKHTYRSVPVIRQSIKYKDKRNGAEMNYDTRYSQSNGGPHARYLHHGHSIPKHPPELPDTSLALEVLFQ
As to the kind of experiment: Two-electrode voltage clamp, peptide-gated currents in Xenopus laevis oocytes expressing WT FaNaC1. It is filed as cell-based. Here is the method:
(§3) FaNaC1 in a modified pSP64 plasmid vector (Supplementary Notes) was used for mutagenesis and messenger RNA preparation and injection into stage V/VI Xenopus laevis oocytes (EcoCyte Bioscience). Mutants were generated by partly overlapping primers (Supplementary Table 1 and ref. [75]), and channel-coding inserts were Sanger sequenced. […] NaCl was replaced with KCl, NH4Cl or H3CNH3Cl (Merck) where appropriate.
(§4) Current amplitudes were measured in Clampfit v.11 (Molecular Devices). N values refer to experiments performed on different oocytes. Data were analyzed in Prism v.9 (GraphPad) and fit with Prism v.9 variable-slope four-parameter nonlinear regression, yielding half-maximal effective activating/inhibiting concentrations (EC50/IC50). […] Mean ± standard error of the mean (s.e.m.) EC50/IC50 from fits to individual cells reported in Main. Currents shown in figures are further filtered (20 Hz) and decimated (50×) in Clampfit 11 for smaller file size.

The target of assay [3] is FMRFamide-gated sodium channel 1 (FaNaC1) from Malacoceros fuliginosus (Malacoceros fuliginosus). As to the kind of experiment: cryo-EM structure; FaNaC1 in POPC:POPG (3:1) lipid nanodiscs, 20 mM HEPES pH 7.6, 150 mM NaCl; alone, or with FMRFa 30 µM or ASSFVRIa 100 µM added directly before freezing; C3 symmetry imposed.
In assay [4] the target is T1, FaNaC1 (WT). Kind of assay: TEVC, diminazene block of peak and sustained FMRFa-gated current, WT FaNaC1 in oocytes. It is filed as cell-based. As to conditions: per oocyte. On the procedure: as §3, §4
(a) 1 μM FMRF-gated currents with and without diminazene in an oocyte expressing wildtype (WT) FaNaC1. […] Scale bars: x, 5 s; y, 0.2 µA. (b) Mean ± SEM normalized peak (n = 4 oocytes) and sustained (n = 7 oocytes) current amplitude in the presence of increasing concentrations of diminazene. […] Scale bars: x, 5 s; y, 0.1 µA. Source data

The subject of a further assay is ENaCs. As to conditions: ENaCs possess asparagine at the 0′ position; cited from earlier work. The text has this: Given the drug’s effect on pore radius and its voltage-dependent block of currents, we hypothesized that this nonprotein density derives from partially unresolved or low occupancy diminazene molecules. […] We ...
The test system of a further assay is FaNaC1 G3′S. Kind of assay: TEVC, diminazene block of sustained FMRFa-gated current at mutant channel. It is filed as cell-based, Malacoceros fuliginosus. The note with it: block of Isus. Here is the method: (§5) Fig. 5 FaNaC1/FMRFa/diminazene structure. a, Pore-lining residues in FaNaC1/FMRFa/diminazene structure (left) and pore radius for all four cryo-EM structures calculated in HOLE[53] (right). b, Top, diminazene structure (ionized at pH 7.4). Middle, peak (Ipeak) and sustained (Isus) FMRFa (3 µM)-gated currents through FaNaC1 in the absence and presence of diminazene (10 μM). Bottom, % block (individual data points, n = 3 oocytes at −60 mV, 4 at 10 mV, 3 at 80 mV; and means, bars) of Isus by diminazene at three different membrane potentials. c, Magnified view of FaNaC1/FMRFa/diminazene model, showing nonprotein cryo-EM density in the pore as mesh. d, Concentration-dependent block of Isus by diminazene at WT and mutant channels (mean ± s.e.m., n = 4 oocytes, except D0′N—see Source data). e, FMRFa-gated current amplitude (Vm = −60 mV; individual data points (n = 5) and means, bars) in extracellular solutions based on different cations. Source data
(§6) Given the drug’s effect on pore radius and its voltage-dependent block of currents, we hypothesized that this nonprotein density derives from partially unresolved or low occupancy diminazene molecules. […] We also generated mutant G2′S channels but saw no currents in oocytes injected with these RNAs (n = 8 over two batches of ooyctes). An additional helical turn higher, the S-1′A substitution caused constitutive current, as expected for mutating the TM2a-1′ degenerin position, but had no effect on diminazene potency (Fig. 5d and Extended Data Fig. 9c). […] Thus, we interpret our FaNaC1/FMRFa/diminazene structure as an FMRFa-gated, diminazene-blocked, open-channel conformation.
as §3
(§7) Oocytes were clamped at −60 mV unless otherwise indicated, and currents were measured by two-electrode voltage clamp, as previously described, using a Warner OC-725C amplifier and HEKA LIH8 + 8 interface with Patchmaster 2x90.4 software (HEKA), sampling at 500 Hz or 1 kHz and filtering at 100 Hz. Current amplitudes were measured in Clampfit v.11 (Molecular Devices). N values refer to experiments performed on different oocytes. Data were analyzed in Prism v.9 (GraphPad) and fit with Prism v.9 variable-slope four-parameter nonlinear regression, yielding half-maximal effective activating/inhibiting concentrations (EC50/IC50). In establishing EC50 values for activation by FMRFa, we waited 4 min between applications of increasing concentrations. […]

The test system of a further assay is FaNaC1 D0′N. The assay is described as above. The class given is cell-based, Malacoceros fuliginosus. The note with it: block of Isus. Here is the method:
as §5, §6, §3, §7

The next assay relates to FaNaC1 S-1′A. The description is as above. The class given is cell-based, Malacoceros fuliginosus. As to conditions: block of Isus. On the procedure:
as §5, §6, §3, §7

The next assay relates to FaNaC1 G6′S. The assay is described as above. It is filed as cell-based, Malacoceros fuliginosus. The note with it: block of Isus. Here is the method: as §5, §6, §3, §7
Assay [5] concerns FaNaC1 H297S. Kind of assay: TEVC, diminazene block of constitutive current of H297S channels. It is filed as cell-based, Malacoceros fuliginosus. The note with it: 30 µM diminazene, mean ± s.e.m., n = 7.
Text: as §1, §2

In assay [6] the target is FaNaC1 M238C (Malacoceros fuliginosus).
The target of assay [7] is FaNaC1 F97C modified by MTSET (Malacoceros fuliginosus).
In assay [8] the target is FaNaC1 F129C (Malacoceros fuliginosus).
Assay [9] deals with FaNaC1 F97C (Malacoceros fuliginosus).
In assay [10] the target is FaNaC1 M238C modified by MTSET (Malacoceros fuliginosus).
The target of assay [11] is FaNaC1 F129C modified by MTSET (Malacoceros fuliginosus).
In assay [12] the target is FaNaC1 F129Q (Malacoceros fuliginosus).
The target of assay [13] is FaNaC1 V122A (Malacoceros fuliginosus).
For assay [14], the target named is FaNaC1 F129L (Malacoceros fuliginosus).
Assay [15] has as its target FaNaC1 F129A (Malacoceros fuliginosus).
The target of assay [16] is FMRFamide-gated sodium channel 1 (FaNaC1) from Malacoceros fuliginosus (Malacoceros fuliginosus).
Assay [17] has the same target. This is another data set of the same source.
The mark [18] stands for this setting: [Diminazene] 1e-7 M, 1 μM FMRF-gated current.

“And” between values parts separate entries of the source, which are not always exact repeats. Identical values can stand only once. Non-standard residues stand in square brackets, D forms with d. No end group written: not given here. Cit = NC(=O)NCCC[C@H](N)C(=O)O

Broadly, the stoichiometry N is the number of molecules, sites or subunits per partner or assembly.

As for “ASSFVRI-NH2 [ASSFVRIa, product of the FVRIamide precursor in several annelids]”, in the assay with FaNaC1 H297S [1], the “relative efficacy at H297S compared to WT” value is on record as “increased”. Besides, the agonist type result on FaNaC1 (WT) [2] is given as “partial agonist”.
In [3], “FMRFamide-gated sodium channel 1 (FaNaC1) from Malacoceros fuliginosus (receptor)” came in with a stoichiometry N of 3.
“FVRI–NH2 [FVRIa, four C-terminal residues of ASSFVRIa]”: the “activity compared to parent peptide ASSFVRIa” value on FaNaC1 (WT) [2] is “very similar activity”.
For “FMRA–NH2 [FMRAa, FMRFa analog lacking the C-terminal F4 side chain]”, the activation of current result at FaNaC1 (WT) [2] (100 μM peptide) is “barely activating detectable currents”.
As to `N=C(N)c1ccc(/N=N/Nc2ccc(C(=N)N)cc2)cc1` [diminazene], the Remaining peak current is 0.9158 and 0.934 and 1.161 and 1.255 on FaNaC1 (WT) [4] (setting [18]); 0.5053 and 0.783 and 0.8871 and 0.9636 on FaNaC1 (WT) [4] ([Diminazene] 1e-6 M). For the same molecule, at FaNaC1 (WT) [4] (setting [18]), the Remaining sustained current is 0.6522 and 0.7647 and 0.9533 and 0.9846 and 0.7407 and 0.6744. Further, the sensitivity to diminazene result in the assay on ENaCs is listed as “insensitive”. The “effect of mutation on diminazene potency” value is listed as “modestly reduced” in the assay on FaNaC1 G3′S, “decreased diminazene potency approximately tenfold” in the assay with FaNaC1 D0′N, “no effect” in the assay with FaNaC1 S-1′A and “drastically reduced” in the assay with FaNaC1 G6′S. Moreover, the “block of constitutive current” value in the assay with FaNaC1 H297S [5] is reported as 76 ± 5%.
H-FMRF-NH2 [FMRFamide (H-Phe-Met-Arg-Phe-NH2)]: the EC50 of FMRFa-gated current without MTSET, two-electrode voltage clamp, Xenopus oocytes is 140 nM in assay [6], 5000 nM in [8] and 250 nM in assay [9]. Besides, the EC50 of FMRFa-gated current with MTSET, two-electrode voltage clamp, Xenopus oocytes in assay [7] was 4000 nM; in assay [10], 580 nM; in assay [11], more than 10000 nM. Further, the fold decrease of FMRFa potency (EC50 of gated current) against WT, two-electrode voltage clamp, Xenopus oocytes in assay [12] turned out to be 100 fold. The molecule also displayed an EC50 of FMRFa-gated current, two-electrode voltage clamp, Xenopus oocytes (20-fold increase in potency) in assay [13] of 40 nM. The EC50 of FMRFa-gated current, two-electrode voltage clamp, Xenopus oocytes in assay [14] was determined as 9000 nM; in assay [15], 18000 nM. The molecule also came in with an EC50 of FMRFa-gated current, two-electrode voltage clamp, Xenopus oocytes expressing WT FaNaC1 in assay [16] of 850 nM.
In turn, FMQF-NH2 [FMQF-NH2] returned an EC50 of peptide-gated current, two-electrode voltage clamp, Xenopus oocytes expressing WT FaNaC1 in assay [17] of 4500 nM.
For the molecule AMRF-NH2 [AMRF-NH2], the EC50 of peptide-gated current, two-electrode voltage clamp, Xenopus oocytes expressing WT FaNaC1 in assay [17] was 300 nM.

B1: FM(citrulline)F-NH2 (peptide)
peptide: FM[Cit]F-NH2
modifications: N-terminus assumed
SMILES: CSCC[C@H](NC(=O)[C@@H](N)Cc1ccccc1)C(=O)N[C@@H](CCCNC(N)=O)C(=O)N[C@@H](Cc1ccccc1)C(N)=O
In assay [17], B1 gave an EC50 of peptide-gated current, two-electrode voltage clamp, Xenopus oocytes expressing WT FaNaC1 of 690 nM.
